Molecular target: recombinant human PD-1 dimer expressed with a C-terminal mouse IgG2a Fc tag (hPD-1-mFc) (human)
Experiment: competition ELISA, 1.5 nM hPD-1-mFc, coated hPD-L1-hFc; NBI

Chain of recombinant human PD-1 dimer expressed with a C-terminal mouse IgG2a Fc tag (hPD-1-mFc) (human) (chain, as listed by the source limits assumed): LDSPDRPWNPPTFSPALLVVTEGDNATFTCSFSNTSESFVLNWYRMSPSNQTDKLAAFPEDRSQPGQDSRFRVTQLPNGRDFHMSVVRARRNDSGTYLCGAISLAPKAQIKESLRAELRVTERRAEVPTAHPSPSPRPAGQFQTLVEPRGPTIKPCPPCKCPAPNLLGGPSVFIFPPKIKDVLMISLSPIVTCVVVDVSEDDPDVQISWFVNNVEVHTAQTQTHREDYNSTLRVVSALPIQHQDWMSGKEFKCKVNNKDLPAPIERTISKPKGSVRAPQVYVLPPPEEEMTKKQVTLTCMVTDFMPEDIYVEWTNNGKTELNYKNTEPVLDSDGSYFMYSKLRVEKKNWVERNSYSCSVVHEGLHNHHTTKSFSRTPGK

% blocking at 200 nM antibody: -18%
Substance: Isotype control 2 (antibody)
